According to patent US20260242735A1 (UNIVERSIT T BASEL, published 2026):

How the values were obtained:
Experiment in all cases: flow cytometry, transfected cells
human CD33 P19D = human CD33 P19D (human, UniProt P20138 18-364)
human CD33 W22G = human CD33 W22G (human, UniProt P20138 18-364)
human CD33 N20D = human CD33 N20D (human, UniProt P20138 18-364)
human CD33 N20V = human CD33 N20V (human, UniProt P20138 18-364)
human CD33 N20Q = human CD33 N20Q (human, UniProt P20138 18-364)
human CD33 N20W = human CD33 N20W (human, UniProt P20138 18-364)
Chain of human CD33 N20W (P20138 18-364 N20W limits assumed): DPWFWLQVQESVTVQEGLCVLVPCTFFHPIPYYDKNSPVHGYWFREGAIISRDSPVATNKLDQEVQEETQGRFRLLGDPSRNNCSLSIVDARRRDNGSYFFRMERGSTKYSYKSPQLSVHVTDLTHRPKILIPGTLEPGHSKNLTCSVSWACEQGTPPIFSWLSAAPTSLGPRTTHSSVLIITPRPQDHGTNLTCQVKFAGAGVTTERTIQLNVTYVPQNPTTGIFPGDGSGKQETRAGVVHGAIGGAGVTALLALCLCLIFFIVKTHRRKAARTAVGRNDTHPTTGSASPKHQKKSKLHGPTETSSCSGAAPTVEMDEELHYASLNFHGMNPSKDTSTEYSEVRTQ

human CD33 N20K = human CD33 N20K (human, UniProt P20138 18-364)
Chain of human CD33 N20K (P20138 18-364 N20K limits assumed): as the sequence (P20138 18-364 N20W limits assumed) above, with W3K counted along it

Measured: binding result

Chain of human CD33 N20D (P20138 18-364 N20D limits assumed): as the sequence (P20138 18-364 N20W limits assumed) above, with W3D counted along it
Chain of human CD33 N20V (P20138 18-364 N20V limits assumed): as the sequence (P20138 18-364 N20W limits assumed) above, with W3V counted along it
Chain of human CD33 N20Q (P20138 18-364 N20Q limits assumed): as the sequence (P20138 18-364 N20W limits assumed) above, with W3Q counted along it
Chain of human CD33 P19D (P20138 18-364 P19D limits assumed): as the sequence (P20138 18-364 N20W limits assumed) above, with P2D, W3N counted along it
Chain of human CD33 W22G (P20138 18-364 W22G limits assumed): as the sequence (P20138 18-364 N20W limits assumed) above, with W3N, W5G counted along it

B1: Refmab #3 (antibody, human IgG1, V domains shown)
VH: QVQLVQSGAEVKKPGSSVKVSCKASGYTFTDYNMHWVRQAPGQGLEWIGYIYPYNGGTGYNQKFKSKATITADESTNTAYMELSSLRSEDTAVYYCARGRPAMDYWGQGTLVTVSS
VL: DIQMTQSPSSLSASVGDRVTITCRASESVDNYGISFMNWFQQKPGKAPKLLIYAASNQGSGVPSRFSGSGSGTDFTLTISSLQPDDFATYYCQQSKEVPWTFGQGTKVEIK
no binding (tested: below 20%): all assays above
